Test results taken from PMC9482650, “Quantitative fragmentomics allow affinity mapping of interactomes” (Nature Communications, 2022).

Key:
Assay in all cases: holdup assay
Parameters in all cases: key: below the threshold = too weak to quantify, mostly under pKd 3.1 to 4
Conditions in all cases: plain residues with an end cap or a label only (N-terminal biotin on a linker: ado-ado)
[1] = target: GIPC2, Q8TF65
[2] = target: GRIP2_6, Q9C0E4
[3] = target: ARHGEF12, Q9NZN5-2
[4] = target: LIMK2, P53671
Sequence of LIMK2, P53671 (P53671 143-248): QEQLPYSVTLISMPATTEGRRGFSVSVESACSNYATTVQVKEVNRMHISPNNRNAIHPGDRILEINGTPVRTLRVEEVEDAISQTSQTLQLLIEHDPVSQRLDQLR

[5] = target: MAGI2_6, Q86UL8
Sequence of MAGI2_6, Q86UL8 (Q86UL8 1141-1229): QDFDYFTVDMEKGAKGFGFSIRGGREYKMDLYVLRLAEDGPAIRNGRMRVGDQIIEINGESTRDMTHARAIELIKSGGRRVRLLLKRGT

[6] = target: NHERF4_1, Q86UT5-2
Sequence of NHERF4_1, Q86UT5-2 (Q86UT5 other isoform, or with tags, fused parts or gaps): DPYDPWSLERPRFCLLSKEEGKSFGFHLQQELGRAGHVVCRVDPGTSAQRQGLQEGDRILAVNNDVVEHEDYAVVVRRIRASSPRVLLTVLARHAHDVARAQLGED

[7] = target: Inadl_3, Q8NI35
Sequence of Inadl_3, Q8NI35 (Q8NI35 359-469): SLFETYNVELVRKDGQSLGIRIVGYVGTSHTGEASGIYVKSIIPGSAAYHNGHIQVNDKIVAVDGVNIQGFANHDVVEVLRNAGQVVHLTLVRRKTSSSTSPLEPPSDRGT

[8] = target: GRASP, Q7Z6J2
Sequence of GRASP, Q7Z6J2 (Q7Z6J2 96-193): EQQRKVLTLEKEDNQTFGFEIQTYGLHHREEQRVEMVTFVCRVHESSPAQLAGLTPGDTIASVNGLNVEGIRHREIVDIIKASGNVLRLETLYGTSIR

[9] = target: MAGI1_1, Q96QZ7
Sequence of MAGI1_1, Q96QZ7 (Q96QZ7 1-106): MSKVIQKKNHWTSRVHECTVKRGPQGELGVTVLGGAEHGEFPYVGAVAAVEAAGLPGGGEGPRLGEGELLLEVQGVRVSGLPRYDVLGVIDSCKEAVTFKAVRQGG

[10] = target: PTPN3, P26045
Sequence of PTPN3, P26045 (P26045 505-587): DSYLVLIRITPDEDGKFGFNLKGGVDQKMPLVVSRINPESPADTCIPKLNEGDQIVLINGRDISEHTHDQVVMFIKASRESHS

[11] = target: SNX27, Q96L92
[12] = target: DLG2_2, Q15700
Sequence of DLG2_2, Q15700 (Q15700 189-283): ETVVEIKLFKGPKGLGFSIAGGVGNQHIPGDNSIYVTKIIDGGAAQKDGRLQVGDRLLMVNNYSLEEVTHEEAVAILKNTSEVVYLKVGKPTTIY

[13] = target: T1, PDZRN3_1, Q9UPQ7
T1 sequence (Q9UPQ7 244-349, limits assumed, looked up): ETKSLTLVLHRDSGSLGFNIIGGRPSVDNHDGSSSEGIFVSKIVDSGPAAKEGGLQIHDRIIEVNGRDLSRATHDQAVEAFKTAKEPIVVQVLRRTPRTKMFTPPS

[14] = target: LDB3, O75112
Sequence of LDB3, O75112 (O75112 1-94): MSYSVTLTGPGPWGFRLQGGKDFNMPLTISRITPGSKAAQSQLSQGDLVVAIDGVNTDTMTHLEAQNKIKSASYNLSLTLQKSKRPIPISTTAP

[15] = target: SCRIB_1, Q14160
Sequence of SCRIB_1, Q14160 (Q14160 718-814): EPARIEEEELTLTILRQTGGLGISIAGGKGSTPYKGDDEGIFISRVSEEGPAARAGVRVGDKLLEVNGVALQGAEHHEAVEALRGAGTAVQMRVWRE

[16] = target: DLG4_1, P78352
Sequence of DLG4_1, P78352 (P78352 62-152): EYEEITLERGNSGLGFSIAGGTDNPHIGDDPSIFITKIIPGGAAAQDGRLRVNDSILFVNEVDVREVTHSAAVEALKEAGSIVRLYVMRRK

[17] = target: T2, LIN7A, O14910
T2 sequence (O14910 103-200, limits assumed, looked up): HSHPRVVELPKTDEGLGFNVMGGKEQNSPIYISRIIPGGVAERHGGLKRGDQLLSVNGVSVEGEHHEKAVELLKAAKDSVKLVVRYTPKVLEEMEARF

[18] = target: MAGI2_5, Q86UL8
Sequence of MAGI2_5, Q86UL8 (Q86UL8 915-1017): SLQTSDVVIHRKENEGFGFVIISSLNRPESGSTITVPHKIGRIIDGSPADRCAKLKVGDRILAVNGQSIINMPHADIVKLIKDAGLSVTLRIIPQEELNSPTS

[19] = target: T3, FRMPD1, Q5SYB0
T3 sequence (Q5SYB0 52-145, limits assumed, looked up): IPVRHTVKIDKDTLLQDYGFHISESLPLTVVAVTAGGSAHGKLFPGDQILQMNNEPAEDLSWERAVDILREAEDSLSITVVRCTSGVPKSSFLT

[20] = target: MAST2, Q6P0Q8
Sequence of MAST2, Q6P0Q8 (Q6P0Q8 1099-1202): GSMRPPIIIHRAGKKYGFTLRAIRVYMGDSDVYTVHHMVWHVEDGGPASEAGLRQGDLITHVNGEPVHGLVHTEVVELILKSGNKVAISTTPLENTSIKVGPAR

[21] = target: T4, ARHGAP21, Q5T5U3
T4 sequence (Q5T5U3 45-169, limits assumed, looked up): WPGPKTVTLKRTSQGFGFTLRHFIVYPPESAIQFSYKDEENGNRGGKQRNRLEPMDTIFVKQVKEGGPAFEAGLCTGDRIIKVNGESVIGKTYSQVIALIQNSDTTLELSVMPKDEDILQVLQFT

[22] = target: T5, CARD11, Q9BXL7
T5 sequence (Q9BXL7 662-765, limits assumed, looked up): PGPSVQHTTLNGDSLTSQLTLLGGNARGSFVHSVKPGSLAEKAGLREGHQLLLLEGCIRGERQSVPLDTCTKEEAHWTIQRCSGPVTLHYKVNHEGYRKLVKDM

[23] = target: T6, LNX2_3, Q8N448
T6 sequence (Q8N448 463-564, limits assumed, looked up): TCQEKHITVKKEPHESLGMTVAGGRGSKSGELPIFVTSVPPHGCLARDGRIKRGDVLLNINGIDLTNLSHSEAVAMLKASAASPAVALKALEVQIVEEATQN

[24] = target: T7, MPP2, Q14168
T7 sequence (Q14168 180-250, limits assumed, looked up): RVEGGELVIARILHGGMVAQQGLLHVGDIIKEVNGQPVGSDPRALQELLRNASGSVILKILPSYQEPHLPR

[25] = target: Inadl_8, Q8NI35
Sequence of Inadl_8, Q8NI35 (Q8NI35 1425-1530): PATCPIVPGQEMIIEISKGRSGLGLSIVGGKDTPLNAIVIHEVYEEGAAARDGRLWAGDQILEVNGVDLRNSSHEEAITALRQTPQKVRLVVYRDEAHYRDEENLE

[26] = target: T8, RADIL, Q96JH8
T8 sequence (Q96JH8 971-1071, limits assumed, looked up): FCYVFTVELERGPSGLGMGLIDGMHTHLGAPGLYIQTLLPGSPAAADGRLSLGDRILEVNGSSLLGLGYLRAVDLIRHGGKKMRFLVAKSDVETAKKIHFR

[27] = target: FRMPD3, Q5JV73
Sequence of FRMPD3, Q5JV73 (Q5JV73 12-100): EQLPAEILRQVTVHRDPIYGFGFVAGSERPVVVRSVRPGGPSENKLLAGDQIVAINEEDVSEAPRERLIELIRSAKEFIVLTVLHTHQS

[28] = target: Inadl_10, Q8NI35
Sequence of Inadl_10, Q8NI35 (Q8NI35 1673-1763): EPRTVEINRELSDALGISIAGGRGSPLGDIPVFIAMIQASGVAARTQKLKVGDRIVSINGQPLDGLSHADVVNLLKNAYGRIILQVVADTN

[29] = target: T9, PARD3B_1, Q8TEW8
T9 sequence (Q8TEW8 196-299, limits assumed, looked up): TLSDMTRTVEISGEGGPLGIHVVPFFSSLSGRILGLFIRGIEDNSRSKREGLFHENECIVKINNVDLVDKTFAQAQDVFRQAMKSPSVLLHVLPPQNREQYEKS

Measured: pKd

Sequence of GIPC2, Q8TF65 (Q8TF65 112-203): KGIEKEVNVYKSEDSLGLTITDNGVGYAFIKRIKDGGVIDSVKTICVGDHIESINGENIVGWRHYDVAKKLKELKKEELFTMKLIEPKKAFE
Sequence of GRIP2_6, Q9C0E4 (Q9C0E4 648-740): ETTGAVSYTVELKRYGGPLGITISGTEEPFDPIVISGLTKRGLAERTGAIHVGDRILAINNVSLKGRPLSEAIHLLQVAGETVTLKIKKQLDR
Sequence of ARHGEF12, Q9NZN5-2 (Q9NZN5 other isoform, or with tags, fused parts or gaps): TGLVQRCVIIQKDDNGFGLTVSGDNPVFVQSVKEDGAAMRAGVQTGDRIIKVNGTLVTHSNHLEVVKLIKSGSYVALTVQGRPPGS

PYPTADHMLA [JUP, P14923]
3.97: [10]
below the threshold: all other assays above

AAVENKVTDL [PLXNB1, O43157]
4.12: [11]
4: [6]
5.5: [3]
4.07: [21]
3.54: [29]
3.95: [12]
3.93: [8]
3.68: [16]
5.61: [20]
4.68: [10]
4.99: [5]
4.62: [15]
below the threshold: all other assays above
